In paper PMC9839713, “Arabidopsis DXO1 activates RNMT1 to methylate the mRNA guanosine cap” (Nature Communications, 2023):

Molecular target: T1, His-DXO1 (Arabidopsis thaliana, UniProt Q8RY73 1-544)
T1 construct: also called His-tagged DXO1; source: E. coli BL21 Rosetta, purified (Ni-NTA); not shown: His6, N-terminal, kept
Assay: pull-down; GST pull-down: 2 ug GST-RNMT1 with His-DXO1 or His-cDXO1 on GST agarose beads, 20 mM Tris-HCl pH 7.5, 100 mM NaCl, 1 mM DTT, 1 mM EDTA, 1 h; in the presence of RNase A; eluted with 10 mM GSH; blots with anti-His and anti-GST
Settings: both partners purified

T1 sequence (Q8RY73 whole entry): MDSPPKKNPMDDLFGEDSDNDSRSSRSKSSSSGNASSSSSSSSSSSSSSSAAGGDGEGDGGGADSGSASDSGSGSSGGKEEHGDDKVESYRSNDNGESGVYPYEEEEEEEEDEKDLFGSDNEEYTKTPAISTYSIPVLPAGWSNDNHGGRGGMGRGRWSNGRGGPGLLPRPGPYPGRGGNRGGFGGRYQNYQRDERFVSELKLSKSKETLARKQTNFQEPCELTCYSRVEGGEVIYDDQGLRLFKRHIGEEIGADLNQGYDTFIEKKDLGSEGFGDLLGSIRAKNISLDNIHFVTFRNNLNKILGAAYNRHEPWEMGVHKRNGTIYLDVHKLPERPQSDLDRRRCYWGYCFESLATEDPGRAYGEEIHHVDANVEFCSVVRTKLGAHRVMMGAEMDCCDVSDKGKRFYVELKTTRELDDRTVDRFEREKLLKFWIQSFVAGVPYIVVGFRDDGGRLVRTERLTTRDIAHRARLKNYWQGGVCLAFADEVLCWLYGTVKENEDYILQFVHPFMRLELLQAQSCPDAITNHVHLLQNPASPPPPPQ

B1: GST-RNMT1 (natural protein, Arabidopsis thaliana, UniProt Q9LHQ7 1-370, looked up)
chain: MKRGFSDSPSSSAPPPSSRFKSNPEGDSQFLEDETTKNFARKVADHYSRRTNQTLEEREASPIIHLKKLNNWIKSVLIQLYARPDDAVLDLACGKGGDLIKWDKARIGYYVGIDIAEGSIEDCRTRYNGDADHHQRRKKFSFPSRLLCGDCFEVELDKILEEDAPFDICSCQFAMHYSWTTEARARRALANVSALLRPGGVFIGTMPDANVIIKKLREAEGLEIGNSVYWIRFGEEYSQKKFKSSSPFGIEYVFHLEDAVDCPEWIVPFNVFKSLAEEYDLELVFVKNSHEFVHEYMKKPEFVELMRRLGALGDGSNDQSTLSADEWEAAYLYLSFVLRKRGESDGARRSGRRKNGKMNLSKDDVLYIDS
notes: The methods name a 'GST-DXO1' fusion in pGEX-4T-1 and RNMT1 in pET28a, while results, legend and pull-down methods use GST-RNMT1; In the functional rows the RNMT1 was the recombinant protein from pET28a (6X His); also called GST-tagged RNMT1; source: E. coli BL21 Rosetta, purified (GST agarose beads); not shown: GST, N-terminal, kept
- binding result: binds
